Laboratory results as given in article PMC11685595 (Scientific Reports, 2024).

Tests used:
Assay in all cases: other fluorescence titration; intrinsic Trp fluorescence quenching, plate-based (96-well), 0-750 µM peptide added to 8 µM enzyme.Ni(II) (1:2), anaerobic preparation, 10 min at 25 °C, 50 mM Tris pH 7.5, 0.4 M NaCl; λex/λem 280/350 nm; fit to one-site specific binding with or without Hill slope
Conditions in all cases: both partners purified
[1] = molecular target: T1, AtHRE1_(2-15) 14-mer peptide (Arabidopsis thaliana, UniProt Q8H0T5 2-15)
T1 construct: HRE1, Arabidopsis thaliana ERFVII, Cys-initiating residues 2-15; source: synthetic peptide (GL Biochem, China)

[2] = molecular target: T2, AtRAP2.12_(2-15) 14-mer peptide (Arabidopsis thaliana, UniProt Q9SSA8 2-15)
T2 construct: RELATED TO AP-2.12 (RAP2.12), Arabidopsis thaliana ERFVII, Cys-initiating residues 2-15; also called RAP2_(2-15); source: synthetic peptide (GL Biochem, China)

[3] = molecular target: T3, AtZPR2_(2-15) 14-mer peptide (Arabidopsis thaliana, UniProt Q9LZX5 2-15)
T3 construct: Little Zipper 2 (ZPR2), Arabidopsis thaliana, Cys-initiating residues 2-15; source: synthetic peptide (GL Biochem, China)

[4] = molecular target: T4, AtVRN2_(2-15) 14-mer peptide (Arabidopsis thaliana, UniProt Q8W5B1 2-15)
T4 construct: Polycomb group protein Vernalisation 2 (VRN2), Arabidopsis thaliana, Cys-initiating residues 2-15; source: synthetic peptide (GL Biochem, China)

Kd [1]: 223 ± 10.3 µM | Kd [2]: 258 ± 14.3 µM | Kd [3]: 692 ± 513 µM | Kd [4]: 107 ± 29.7 µM
B1: Arabidopsis thaliana Plant Cysteine Oxidase 5, Ni(II)-substituted (AtPCO5.Ni(II)) (enzyme)
chain: not shown
notes: Plant Cysteine Oxidase 5 (AtPCO5), Arabidopsis thaliana; Active-site Fe(II) removed and replaced with Ni(II) (enzyme:metal 1:2)
